Results on 4 molecules are retold here after patent US20050053985A1 (PTC THERAPEUTICS, published 2005).

The labels stand for the following.
B1: His-Flag-HsSen2 (other, not shown: small tags and cut ends)
chain: MAEAVFHAPKRKRRVYETYESPLPIPFGQDHGPLKEFKIFRAEMINNNVIVRNAEDIEQLYGKGYFGKGILSRSRPSFTISDPKLVAKWKDMKTNMPIITSKRYQHSVEWAAELMRRQGQDESTVRRILKDYTKPLEHPPVKRNEEAQVHDKLNSGMVSNMEGTAGGERPSVVNGDSGKSGGVGDPREPLGCLQEGSGCHPTTESFEKSVREDASPLPHVCCCKQDALILQRGLHHEDGSQHIGLLHPGDRGPDHEYVLVEEAECAMSEREAAPNEELVQRNRLICRRNPYRIFEYLQLSLEEAFFLVYALGCLSIYYEKEPLTIVKLWKAFTVVQPTFRTTYMAYHYFRSKGWVPKVGLKYGTDLLLYRKGPPFYHASYSVIIELVDDHFEGSLRRPLSWKSLAALSRVSVNVSKELMLCYLIKPSTMTDKEMESPECMKRIKVQEVILSRWVSSRERSDQDDL
notes: Bait expressed stably in 293 cells and purified with its partners over anti-Flag and Ni beads; also called His-Flag-Sen2; His-Flag-Sen2WT
B2: His-Flag-HsSen15 (other)
chain: MEERGDSEPTPGCSGLGPGGVRGFGDGGGAPSWAPEDAWMGTHPKYLEMMELDIGDATQVYVAFLVYLDLMESKSWHEVNCVGLPELQLICLVGTEIEGEGLQTVVPTPITASLSHNRIREILKASRKLQGDPDLPMSFTLAIVESDSTIVYYKLTDGFMLPDPQNISLRR
notes: Bait expressed stably in 293 cells; also called His-Flag-Sen15; tagged HsSen15; not shown: His and Flag tag from the His-Flag-pcDNA3.1/Hygro vector
B3: His-Flag-HsSen2deltaEx8 (other, not shown: small tags and cut ends)
chain: MAEAVFHAPKRKRRVYETYESPLPIPFGQDHGPLKEFKIFRAEMINNNVIVRNAEDIEQLYGKGYFGKGILSRSRPSFTISDPKLVAKWKDMKTNMPIITSKRYQHSVEWAAELMRRQGQDESTVRRILKDYTKPLEHPPVKRNEEAQVHDKLNSGMVSNMEGTAGGERPSVVNGDSGKSGGVGDPREPLGCLQEGSGCHPTTESFEKSVREDASPLPHVCCCKQDALILQRGLHHEDGSQHIGLLHPGDRGPDHEYVLVEEAECAMSEREAAPNEELVQRNRLICRRNPYRIFEYLQLSLEEEPLTIVKLWKAFTVVQPTFRTTYMAYHYFRSKGWVPKVGLKYGTDLLLYRKGPPFYHASYSVIIELVDDHFEGSLRRPLSWKSLAALSRVSVNVSKELMLCYLIKPSTMTDKEMESPECMKRIKVQEVILSRWVSSRERSDQDDL
notes: also called His-Flag-Sen2ΔEx8; His-Flag-Sen2deltaEx8
B4: His-Flag-HsSen34 (other, not shown: small tags and cut ends)
chain: MLVVEVANGRSLVWGAEAVQALRERLGVGGRTVGALPRGPRQNSRLGLPLLLMPEEARLLAEIGAVTLVSAPRPDSRHHSLALTSFKRQQEESFQEQSALAAEARETRRQELLEKITEGQAAKKQKLEQASGASSSQEAGSSQAAKEDETSDGQASGEQEEAGPSSSQAGPSNGVAPLPRSALLVQLATARPRPVKARPLDWRVQSKDWPHAGRPAHELRYSIYRDLWERGFFLSAAGKFGGDFLVYPGDPLRFHAHYIAQCWAPEDTIPLQDLVAAGRLGTSVRKTLLLCSPQPDGKVVYTSLQWASLQ
notes: Bait expressed stably in 293 cells; also called His-Flag-Sen34; His-Flag-34

This assay deals with SmB/B′ proteins (human, UniProt P14678 1-240). Briefly: co-purification with the His-Flag-tagged bait from stable 293 cells (anti-Flag beads, then Ni beads); SDS-PAGE, Western blot with Y12 antibody (SmB/B′). The procedure:
Proteins co-purified with His-Flag-HsSen2, His-Flag-HsSen2deltaEx8, His-Flag-HsSen34, His-Flag-HsSen15 and His-Flag-HsClp1 were analyzed by SDS-PAGE followed by Western blotting with antibodies against Symplekin, CstF64. Y12 antibody that recognizes SmB/B′ proteins was used a negative control.
Complexes purified using the different epitope-tagged subunits of the endonuclease complexes were analyzed by Western blotting using antibodies specific for Symplekin and CstF64, components of the human pre-mRNA 3′-end processing complex. Y12 antibody (known to recognize pre-mRNA splicing snRNP […] proteins) was used as a negative control. […] Similar amounts of 3′-end complexes were purified from all His-Flag-tagged tRNA endonuclease subunits. Since the purification conditions were very stringent and utilized two affinity chromatography steps (see experimental procedures), the interaction between tRNA splicing endonuclease and pre-mRNA 3′-end processing factors is quite robust. Immunoprecipitation under standard salt conditions to more accurately determine the amount of 3′-end factors associated with the tRNA endonuclease was also performed. It was shown that as much as 1% of the 3′-end processing factors are associated with the tRNA endonuclease. […] Furthermore, His-Flag-HsSen2deltaEx8 and His-Flag-HsClp1 were able to associate with a larger proportion of the 3′-end formation complexes (FIG. 29, compare lane 8 and 11 to 7, 9, 10). [0764] 5.2.2.7 Depletion of SEN2 Causes Defects in tRNA Splicing and Pre-mRNA 3′ end Formation
As to B1, the binding result is on record as “no binding”.

For the molecule B2, the binding result is reported as “no binding”.

On to B3, for which the binding result is “no binding”.

In the case of B4, the binding result was “no binding”.
